In PMC3858243, “Escherichia coli Ribosomal Protein S1 Unfolds Structured mRNAs Onto the Ribosome for Active Translation Initiation”:

How the values were obtained:
Experiment in all cases: EMSA; Not given in the material for EMSA, SPR and filter binding (buffer with monovalent ions and MgCl2; RNA renatured 90°C 1 min, ice, then 25°C 30 min)
[1] = target: ribosomal protein S1 wild type (Escherichia coli, UniProt P0AG67 1-557)
S1Δ3-6 = S1Δ3-6 (Escherichia coli, UniProt P0AG67 1-170); conditions: protein: recombinant; tags: C-terminal His6; label: 5' 32P; pseudoknot
S1Δ4-6 = S1Δ4-6 (Escherichia coli, UniProt P0AG67 1-279); conditions: protein: recombinant; tags: C-terminal His6; label: 5' 32P; pseudoknot

B1: mut-psk-rpsOSD (structured_RNA)
RNA: GGGAUCGCUGAAUUAGAGAUCGGCGUCCUUUCAUUCUAUAUAGUAAGGAGGUUAAAAUGUCUCUAAGU
apparent K (half saturation) [1]: ~447 nM
binding result (S1Δ3-6): no binding
binding signal (S1Δ4-6): 5 fold weaker than WT S1
